# Source: article PMC10284121 (2023)
# B1: 14-3-3γ (protein)
# chain: VDREQLVQKARLAEQAERYDDMAAAMKNVTELNEPLSNEERNLLSVAYKNVVGARRSSWRVISSIEQKTSADGNEKKIEMVRAYREKIEKELEAVCQDVLSLLDNYLIKNCSETQYESKVFYLKMKGDYYRYLAEVATGEKRATVVESSEKAYSEAHEISKEHMQPTHPIRLGLALNYSVFYYEIQNAPEQACHLAKTAFDDAIAELDTLNEDSYKDSTLIMQLLRDNLTLWTSDQQDDDGGEGNN
# modifications: phosphopeptide, fluorescein label, MG1 present (2-3 h)
# B2: 14-3-3γ (protein)
# chain: B1 chain
# modifications: phosphopeptide, fluorescein label, MG1 present (10 min)
# B3: 14-3-3γ (protein)
# chain: B1 chain
# modifications: phosphopeptide, fluorescein label
# B4: 14-3-3γ (protein)
# chain: B1 chain
# modifications: phosphopeptide, fluorescein label, MG1 present, pH 8.0
# B5: 14-3-3γ (protein)
# chain: B1 chain
# modifications: phosphopeptide, fluorescein label, fusicoccin-A present
# B6: 14-3-3γ (protein)
# chain: B1 chain
# modifications: phosphopeptide, fluorescein label, MG1 present, pH 6.5
# Target: Pin1 phosphopeptide (fluorescein-labelled) (Homo sapiens, UniProt Q13526)
# Assay: fluorescence anisotropy
# Sequence of Pin1 phosphopeptide (fluorescein-labelled) (Q13526 whole entry): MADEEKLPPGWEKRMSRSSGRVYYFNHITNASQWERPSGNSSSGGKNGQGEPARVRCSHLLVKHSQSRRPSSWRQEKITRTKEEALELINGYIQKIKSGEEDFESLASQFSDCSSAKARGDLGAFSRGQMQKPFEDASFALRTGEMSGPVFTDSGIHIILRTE
row,Binder,Kd
1,B1,1.5 µM
2,B2,5.4 µM
3,B3,30 µM
4,B4,~0.6 µM
5,B5,2.9 µM
6,B6,~5.2 µM
